# Read-outs that look alike come from different tables or passages of the source.
# B1: mTrxRΔ3 (Mus musculus) (protein)
# chain: GGQQSFDLLVIGGGSGGLACAKEAAQLGKKVAVADYVEPSPRGTKWGLGGTCVNVGCIPKKLMHQAALLGGMIRDAHHYGWEVAQPVQHNWKTMAEAVQNHVKSLNWGHRVQLQDRKVKYFNIKASFVDEHTVRGVDKGGKATLLSAEHIVIATGGRPRYPTQVKGALEYGITSDDIFWLKESPGKTLVVGASYVALECAGFLTGIGLDTTVMMRSIPLRGFDQQMSSLVTEHMESHGTQFLKGCVPSHIKKLPTNQLQVTWEDHASGKEDTGTFDTVLWAIGRVPETRTLNLEKAGISTNPKNQKIIVDAQEATSVPHIYAIGDVAEGRPELTPTAIKAGKLLAQRLFGKSSTLMDYSNVPTTVFTPLEYGCVGLSEEEAVALHGQEHVEVYHAYYKPLEFTVADRDASQCYIKMVCMREPPQLVLGLHFLGPNAGEVTQGFALGIKCGASYAQVMQTVGIHPTCSEEVVKLHISKRSGLEPTVTG
# B2: mTrxR-CUG (Mus musculus) (protein)
# chain: GGQQSFDLLVIGGGSGGLACAKEAAQLGKKVAVADYVEPSPRGTKWGLGGTCVNVGCIPKKLMHQAALLGGMIRDAHHYGWEVAQPVQHNWKTMAEAVQNHVKSLNWGHRVQLQDRKVKYFNIKASFVDEHTVRGVDKGGKATLLSAEHIVIATGGRPRYPTQVKGALEYGITSDDIFWLKESPGKTLVVGASYVALECAGFLTGIGLDTTVMMRSIPLRGFDQQMSSLVTEHMESHGTQFLKGCVPSHIKKLPTNQLQVTWEDHASGKEDTGTFDTVLWAIGRVPETRTLNLEKAGISTNPKNQKIIVDAQEATSVPHIYAIGDVAEGRPELTPTAIKAGKLLAQRLFGKSSTLMDYSNVPTTVFTPLEYGCVGLSEEEAVALHGQEHVEVYHAYYKPLEFTVADRDASQCYIKMVCMREPPQLVLGLHFLGPNAGEVTQGFALGIKCGASYAQVMQTVGIHPTCSEEVVKLHISKRSGLEPTVTGCUG
# Columns and labels:
# Format in all cases: biochemical
# Details in all cases: pH 7.0; 22.0 °C
# [1] = substrate: NCC[Se][Se]CCN
# [2] = substrate: O=C(O)c1cc(SSc2ccc([N+](=O)[O-])c(C(=O)O)c2)ccc1[N+](=O)[O-]
# [3] = substrate: NCC[Se][Se]CCN; remark: listed apart in the source
# [4] = substrate: O=C(O)c1cc(SSc2ccc([N+](=O)[O-])c(C(=O)O)c2)ccc1[N+](=O)[O-]; remark: listed apart in the source
Protein,Km [1] [µM],kcat [1] [s⁻¹],kcat/Km [1] [M⁻¹ s⁻¹],Km [2] [µM],kcat [2] [s⁻¹],kcat/Km [2] [M⁻¹ s⁻¹],Km [3] [µM],kcat [3] [s⁻¹],kcat/Km [3] [M⁻¹ s⁻¹],Km [4] [µM],kcat [4] [s⁻¹],kcat/Km [4] [M⁻¹ s⁻¹]
B1,1033 ± 114,1.27 ± 0.0667,1220,12 ± 2.7,48.3 ± 8.33,4e+06,–,–,–,–,–,–
B2,–,–,–,–,–,–,79 ± 0.7,62.3 ± 7.5,783000,3 ± 0.7,52.8 ± 7.5,1.83e+07
